The values below are quoted from earlier work in article PMC7761795.

Series [1] has as its target UBE2N (Homo sapiens) (UniProt P61088). Description: fluorescence polarization. As to conditions: cited from earlier work.
For series [2] the target is unchanged. As to the kind of experiment: SPR. As to conditions: cited from earlier work.

Chain of UBE2N (Homo sapiens) (P61088 whole entry): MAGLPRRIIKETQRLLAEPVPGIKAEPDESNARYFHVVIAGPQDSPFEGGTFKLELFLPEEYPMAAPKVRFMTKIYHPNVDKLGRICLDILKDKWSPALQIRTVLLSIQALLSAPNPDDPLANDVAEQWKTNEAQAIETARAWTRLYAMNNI
Chain of OTUB1 (Q96FW1 2-271): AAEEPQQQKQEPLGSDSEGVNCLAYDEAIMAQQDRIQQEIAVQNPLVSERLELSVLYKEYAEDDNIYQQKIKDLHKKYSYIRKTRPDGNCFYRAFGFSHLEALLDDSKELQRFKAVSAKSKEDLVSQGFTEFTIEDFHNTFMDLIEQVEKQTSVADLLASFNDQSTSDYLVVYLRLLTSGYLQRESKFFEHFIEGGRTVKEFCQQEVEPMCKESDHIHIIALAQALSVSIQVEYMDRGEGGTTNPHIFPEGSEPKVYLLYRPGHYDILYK

Regarding OTUB1 (from UniProt Q96FW1), the Kd with UBE2N (Homo sapiens) [1] was 7.04 µM; with UBE2N (Homo sapiens) [2] it was 8.9 µM.
